Measured values taken from article doi:10.1101/2020.03.15.992883 (2020).

Target: SARS-CoV-2 S receptor-binding domain (RBD) with C-terminal His6 tag (SARS-CoV-2, glycan N343)
Assay: BLI

B1: CR3022 IgG (human IgG1, kappa) (antibody, V domains shown)
VH: EVQLVQSGTEVKKPGESLKISCKGSGYGFITYWIGWVRQMPGKGLEWMGIIYPGDSETRYSPSFQGQVTISADKSINTAYLQWSSLKASDTAIYYCAGGSGISTPMDVWGQGTTVTVSS
VL: not shown
Work on B1 yielded a Kd of 12.4 nM.
